Patent US8221990B2, “Screening GPR12 receptor for substances having Nesfatin-1-like action, or which regulate Nesfatin-1 action” (Teijin Pharma Limited, priority 2007, dated 2012)

Target: T1, mouse GPR12 (Mus musculus, UniProt P35412)
T1 construct: expressed in transfected cells
T1 sequence (P35412 1-334): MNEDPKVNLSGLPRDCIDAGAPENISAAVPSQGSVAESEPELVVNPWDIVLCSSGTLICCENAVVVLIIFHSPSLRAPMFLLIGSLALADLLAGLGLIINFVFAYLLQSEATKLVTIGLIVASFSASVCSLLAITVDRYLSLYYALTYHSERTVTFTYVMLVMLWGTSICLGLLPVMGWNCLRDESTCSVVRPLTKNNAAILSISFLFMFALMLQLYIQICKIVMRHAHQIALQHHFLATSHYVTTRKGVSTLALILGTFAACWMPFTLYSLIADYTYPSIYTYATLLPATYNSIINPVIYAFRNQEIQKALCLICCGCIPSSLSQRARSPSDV
Test: cAMP production in CHO-K1-cell stable expression system (CHO-K1-GPR12)
Format: cell-based
Settings: CHO-K1-GPR12, peptide 10^-9 M, Forskolin 10^-5 M, 30 minutes
Description: The preparation of cells stably expressing GPR12 was conducted by a conventional method, and hereinafter described briefly. A vector (pcDNA3.1-GPR12) in which a gene (cDNA) encoding mouse GPR12 (SEQ ID NO: 8) was inserted at the downstream of a CMV promoter of pcDNA3.1 (TM) (Invitrogen Corporation) was prepared, 10 μg of the vector was mixed with 250 μL of medium OPTI-MEM™ (Invitrogen Corporation), and 10 μg of Lipofectamine™ 2000 Reagent (Invitrogen Corporation) was mixed with 250 μL of medium OPTI-MEM™, 5 minutes later both mixtures were mixed, and the resultant mixture was left over at room temperature for 20 minutes to prepare a transfection reagent. Chinese hamster ovary cells (CHO-K1) [ATCC Cat. No. CCl-61] plated onto a 6-well plate at 1.5×10^6 cells/well on the previous day in advance were washed with medium OPTI-MEM™ once, and the above-mentioned transfection reagent (vector and Lipofectamine™ 2000 Reagent) was added to the cells dropwise to perform transfection. The resultant transfected cells were incubated at 37° C. for 5 hours in a CO2 incubator, and then the medium was replaced by Ham's F12 medium. Further, the next day the medium was exchanged with Ham's F12 medium containing 100 μg/mL of Geneticin® (Invitrogen Corporation), and furthermore the next day the medium was exchanged with the same medium containing 200 μg/mL of Geneticin®, and the following day the medium was exchanged with the same medium containing 700 μg/mL of Geneticin®, and after that, culturing was continued under the conditions of 37° C. and 5% CO2 in a medium containing Geneticin® at the same concentration. […]
The measured intracellular cAMP level was evaluated in terms of a ratio (Fold) of each intracellular cAMP level with respect to the mean of the intracellular cAMP level in the (−) group that is set as unity, in which CHO-K1-GPR12 cells were cultured in the medium containing no peptide.

Nesfatin-1M30: mid-segment of Nesfatin-1, human-derived Nesfatin-1M30, SEQ ID NO: 11 (PDTGLYYDEYLKQVIDVLETDKHFREKLQK; listed as Homo sapiens)
intracellular cAMP level compared with the group (-) cultured in medium containing no peptide: about 5 fold
